Experiment [1] deals with α chain (α96Val→Trp) with the N-terminal methionine, as expressed in E. coli before processing (human).
Experiment [2] concerns the target β chain of human hemoglobin with the N-terminal methionine, as expressed in E. coli before processing (human).

As to “E. coli methionine aminopeptidase (from UniProt P0AE18) (enzyme)”, the removal of the N-terminal methionine, electrospray mass spectrometry of the purified r Hb was more than 98% in experiment [1] and 90% in experiment [2].

Source of the values: patent publication US5843888.
